Literature values in paper PMC8535836.

Molecular target: Neuroplastin Np65 Ig1 (Rattus norvegicus) (UniProt P97546)
Test: Surface Plasmon Resonance

Neuroplastin Np65 Ig1 (from UniProt P97546)
Kd: 0.52 µM
